3 molecules from publication PMC6937325, “Tuning PFKFB3 Bisphosphatase Activity Through Allosteric Interference” (Scientific Reports, 2019) can be followed below.

In assay [1] the target is T1, human inducible phospho-fructokinase bisphosphatase isoform 3, PFKFB3 (human, UniProt Q16875 1-520, RED-NHS label).
T1 construct: human PFKFB3 (inducible bifunctional enzyme), GenBank AF056320.1; Plasmid from Prof; Yong-Hwan Lee; also called 6-Phosphofructo-2-kinase/fructose-2,6-biphosphatase 3; human inducible bifunctional enzyme; not shown: His tag, N-terminal, cleaved
T1 sequence (Q16875 whole entry, canonical isoform): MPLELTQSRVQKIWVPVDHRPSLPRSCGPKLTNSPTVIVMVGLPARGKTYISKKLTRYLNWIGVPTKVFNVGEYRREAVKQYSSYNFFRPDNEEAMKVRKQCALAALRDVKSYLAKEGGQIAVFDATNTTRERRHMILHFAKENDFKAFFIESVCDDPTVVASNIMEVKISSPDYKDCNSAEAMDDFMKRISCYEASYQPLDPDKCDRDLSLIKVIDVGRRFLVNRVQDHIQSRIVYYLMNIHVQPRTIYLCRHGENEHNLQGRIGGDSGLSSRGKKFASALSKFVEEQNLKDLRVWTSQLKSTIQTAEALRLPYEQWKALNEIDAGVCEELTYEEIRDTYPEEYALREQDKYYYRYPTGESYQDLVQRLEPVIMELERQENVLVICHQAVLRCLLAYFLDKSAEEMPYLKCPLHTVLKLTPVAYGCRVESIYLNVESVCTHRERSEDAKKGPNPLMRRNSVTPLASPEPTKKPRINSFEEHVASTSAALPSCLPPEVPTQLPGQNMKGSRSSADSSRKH
Kind of assay: MST; Nanotemper microscale thermophoresis; compound in MST buffer mixed 1:1 with 100 nM RED-NHS labeled recombinant PFKFB3, incubated 20 min at room temperature. The settings on record: both partners purified.

Assay [2] concerns the target T1, human inducible phospho-fructokinase …. The assay is described as above. The settings on record: both partners purified. The source holds these as a separate data set.

Square brackets hold non-standard residues; d marks the D form. Ends that are not written are not given here.

As a reminder, the Kd is the free concentration of one partner at which half of the binding sites on the other are occupied at equilibrium, for simple one-to-one binding.

B1: peptide 4 (YSGFLT) (peptide)
peptide: YSGFLT
notes: printed as YSGFLT; picked by virtual screening of ZINC libraries; also called compound 4; source: synthetic peptide
For the molecule B1, in assay [1], the Kd was determined as 18.3 µM.

B2: peptide 5 (SFLLR-CONH2) (peptide)
peptide: SFLLR-NH2
notes: printed as SFLLR-CONH2; picked by virtual screening of ZINC libraries; also called compound 5; source: synthetic peptide
B2: the Kd in assay [1] came out at 44.4 µM.

B3: peptide 6 (wGy) (peptide)
chain: [dW]-Gly-[dY]
As for B3, in assay [2], the Kd came out at 2.79 µM.
